Source: US20220025045A1

How the values were obtained:
[1] = molecular target: recombinant human ILT2 protein (analyte in SPR and Octet) (human) (UniProt Q8NHL6); assay: BLI (Octet RED96), mAb captured on AMC biosensor, 1:1 model
[2] = molecular target: ILT2 on primary human NK cells (human) (UniProt Q8NHL6); assay: flow cytometry, primary NK cells
[3] = molecular target: human ILT-2 (LILRB1), complete form expressed at the cell surface (human) (UniProt Q8NHL6); assay: flow cytometry, CHO-ILT2 cells
human ILT-2 (LILRB1), complete form expressed at the cell surface (human), sequence (Q8NHL6 24-650): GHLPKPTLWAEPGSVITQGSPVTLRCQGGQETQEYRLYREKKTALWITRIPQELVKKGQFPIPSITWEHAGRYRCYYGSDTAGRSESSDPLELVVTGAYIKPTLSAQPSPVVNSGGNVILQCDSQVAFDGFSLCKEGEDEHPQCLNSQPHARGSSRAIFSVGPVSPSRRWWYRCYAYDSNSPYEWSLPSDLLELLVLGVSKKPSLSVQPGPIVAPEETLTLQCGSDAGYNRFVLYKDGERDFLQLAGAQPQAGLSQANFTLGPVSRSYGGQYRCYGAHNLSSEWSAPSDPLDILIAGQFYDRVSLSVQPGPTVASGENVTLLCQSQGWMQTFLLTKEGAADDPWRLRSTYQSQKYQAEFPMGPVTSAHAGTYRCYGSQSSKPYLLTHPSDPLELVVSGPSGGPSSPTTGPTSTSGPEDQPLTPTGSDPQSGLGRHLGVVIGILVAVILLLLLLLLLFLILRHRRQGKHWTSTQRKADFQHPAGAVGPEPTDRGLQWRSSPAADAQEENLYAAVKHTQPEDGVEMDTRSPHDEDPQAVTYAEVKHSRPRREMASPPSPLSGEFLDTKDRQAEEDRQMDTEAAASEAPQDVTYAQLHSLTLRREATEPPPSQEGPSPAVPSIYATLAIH

human FcRn (human) = human FcRn (human) (UniProt P55899); assay: SPR, antibody immobilized, soluble FcR
[4] = molecular target: recombinant human CD32a (human) (UniProt P12318); assay: SPR, antibody immobilized, soluble FcR, steady state
recombinant human CD32a (human), sequence (P12318 36-218): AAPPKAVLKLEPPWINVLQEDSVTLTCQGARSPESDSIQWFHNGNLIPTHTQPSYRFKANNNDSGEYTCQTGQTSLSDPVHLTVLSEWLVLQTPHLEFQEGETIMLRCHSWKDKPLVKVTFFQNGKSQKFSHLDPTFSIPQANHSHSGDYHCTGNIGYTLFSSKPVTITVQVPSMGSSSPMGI

[5] = molecular target: recombinant human CD32b (human) (UniProt P31994); assay: as above
recombinant human CD32b (human), sequence (P31994 46-217): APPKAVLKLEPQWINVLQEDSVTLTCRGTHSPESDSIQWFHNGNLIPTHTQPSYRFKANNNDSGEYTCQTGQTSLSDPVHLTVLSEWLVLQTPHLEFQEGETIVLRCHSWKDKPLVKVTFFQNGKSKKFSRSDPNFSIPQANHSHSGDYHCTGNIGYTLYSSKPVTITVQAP

[6] = molecular target: recombinant human CD64 (human) (UniProt P12314); assay: SPR, antibody immobilized, soluble CD64, 1:1 kinetic model
recombinant human CD64 (human), sequence (P12314 16-288 limits assumed): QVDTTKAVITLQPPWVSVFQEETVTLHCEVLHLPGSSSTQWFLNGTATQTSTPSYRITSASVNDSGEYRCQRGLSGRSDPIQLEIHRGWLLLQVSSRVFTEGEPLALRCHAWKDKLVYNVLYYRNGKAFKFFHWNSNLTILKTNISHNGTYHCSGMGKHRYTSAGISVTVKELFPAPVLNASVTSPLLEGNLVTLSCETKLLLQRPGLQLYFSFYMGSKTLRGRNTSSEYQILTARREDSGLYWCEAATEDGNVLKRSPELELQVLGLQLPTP

[7] = molecular target: recombinant human CD16a(V) (human) (UniProt P08637); assay: SPR, antibody immobilized, soluble FcR, steady state
recombinant human CD16a(V) (human), sequence (P08637 17-208 F176V limits assumed): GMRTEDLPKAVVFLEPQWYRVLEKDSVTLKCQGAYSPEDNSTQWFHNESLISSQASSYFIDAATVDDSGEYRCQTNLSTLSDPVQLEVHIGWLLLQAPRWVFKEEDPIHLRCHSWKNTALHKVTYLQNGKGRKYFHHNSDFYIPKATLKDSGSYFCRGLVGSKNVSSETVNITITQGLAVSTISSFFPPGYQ

[8] = molecular target: recombinant human CD16a(F) (human) (UniProt P08637); assay: as above
recombinant human CD16a(F) (human), sequence (P08637 17-208 limits assumed): as the sequence (P08637 17-208 F176V limits assumed) above, with V160F counted along it

[9] = molecular target: recombinant human CD16b (human) (UniProt O75015); assay: as above
recombinant human CD16b (human), sequence (O75015 17-200 limits assumed): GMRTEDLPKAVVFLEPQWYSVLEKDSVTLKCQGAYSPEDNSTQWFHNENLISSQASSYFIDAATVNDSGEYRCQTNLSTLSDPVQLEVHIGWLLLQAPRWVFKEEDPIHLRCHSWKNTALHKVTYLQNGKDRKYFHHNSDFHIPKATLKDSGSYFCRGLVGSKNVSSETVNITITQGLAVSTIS

recombinant human ILT2 protein (analyte in SPR and Octet) (human), sequence (Q8NHL6 24-458 limits assumed): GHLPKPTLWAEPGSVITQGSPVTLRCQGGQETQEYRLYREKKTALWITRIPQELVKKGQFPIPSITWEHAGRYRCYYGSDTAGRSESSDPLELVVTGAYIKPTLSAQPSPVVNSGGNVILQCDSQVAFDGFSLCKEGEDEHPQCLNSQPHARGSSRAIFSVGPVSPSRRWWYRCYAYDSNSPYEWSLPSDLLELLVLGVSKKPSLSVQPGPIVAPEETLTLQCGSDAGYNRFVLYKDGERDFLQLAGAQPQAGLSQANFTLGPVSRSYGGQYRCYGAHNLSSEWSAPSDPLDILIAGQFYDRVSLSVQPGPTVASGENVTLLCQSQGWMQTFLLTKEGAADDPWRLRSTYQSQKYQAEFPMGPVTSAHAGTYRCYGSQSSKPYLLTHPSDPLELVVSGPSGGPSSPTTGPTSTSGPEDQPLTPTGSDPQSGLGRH
ILT2 on primary human NK cells (human), sequence (Q8NHL6 24-650): as the sequence (Q8NHL6 24-650) above

Row | Kd (human FcRn (human)) [nM] | Kd [4] [nM] | Kd [5] [nM] | Kd [6] [nM] | Kd [7] [nM] | Substance | also measured
1 |  |  |  |  |  | HP-F1 (antibody) | Kd [1]: 2.3 nM; koff [1]: 0.0011 s⁻¹; kon [1]: 460000 M⁻¹ s⁻¹; EC50 [2]: 0.09 µg/mL; EC50 [3]: 0.56 µg/mL
2 | 714 |  |  |  |  | human IgG1 antibody having L234A/L235E/G237A/A330S/P331S substitutions | 
3 |  | 18200 | 21800 |  |  | human IgG1 antibody having L234A/L235E/G237A/A330S/P331S substitutions (antibody; other documents disagree on this pair) | 
4 | 712 |  |  | 278 |  | human IgG1 antibody having a N297S substitution | 
5 | 627 | 14200 | 17400 | 933 | 8630 | human IgG1 antibody having L234F/L235E/P331S substitutions | Kd [8]: 35600 nM
6 | 758 | 16800 | 16600 |  |  | human IgG1 antibody having L234A/L235E/G237A/P331S substitutions | 
7 | 1270 | 2080 |  |  | 734 | antibody having wild type human IgG1 domain | Kd [9]: 15000 nM; Kd [8]: 962 nM
8 | 1510 | 19900 | 79800 | 1550 | 9920 | human IgG1 antibody having L234A/L235E/P331S substitutions | 
